Data: the supplement of paper PMC9170038

What follows are sequences tested on MS2 coat protein (assay: apparent KD of MS2 coat protein; higher = weaker reporter binding). Conditions: Eterna round: R107; input ligand: theophylline 20 uM.
Experimental: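 RNA-MaP round R107: designed RNA switches with theophylline, tryptophan, arginine or FMN aptamers are transcribed on-chip within common flanks. They are titrated with SNAP-549-labelled MS2 coat protein in RNA-MaP buffer (100 mM Tris pH 7.5, 80 mM KCl, 4 mM MgCl2), without ligand or with the indicated ligand. Median apparent KD per design.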

Point of comparison: “GUCUCUGAGAGAAGGAGCGUGAAGACAUGAGGAUCACCCAUGUAGAGGCGCCGAAGGCGUUCGCAGGUAGGUCGCUCUCAGAGAC [#1 Same State - Arginine B Attempt #20 (HarryS)]”, “apparent KD of MS2 coat protein” value 23.8 nM. Against it:
- ACCUGUACGAAAAGUGCAGGACAUGGAAAUCGAGGACCGGUACGGCCGCCACUCGUUGAAAACAAGUGGAUCACCCUUGUCCAUG [TrypAS 3 #AlternativeMS2 #Zipper #StaticStem] — 32-fold higher, 764 nM
- GGCCCGGACUUGGAAUGGGUGUUUCCCUCACGAGGACCGGUACGGCCGCCACUCGAAGACAUGAGGAUCACCCAUGUAGUCGACA [Qudirate] — 3.3-fold higher, 78 nM
- AAUUCAAGGUUCUUGAUGUAUUAUAUAUUUCGAGGACCGGUACGGCCGCCACUCGUUAAUUACAUGAGGAUCACCCAUGUUAGCU [JR_ExcTryptoA_Sub010] — within 1.5-fold, 16 nM
- GCCGGACUUUCGGCCGCCACUGAGAGAGUCGUGUGAACAUGAGGAUCACCCAUGUAAUAUAUAUACAGGACCGGGAGGGUUCGGC [4.S] — within 1.5-fold, 18.7 nM
- UGUAUGUGAUCUGAUACCAGCGAUGAUAACCUGAGGAUCACCCUGGUAAGGCGAAAGCCUCGCCCUUGGCAGCAGAUCGCAUACU — 11-fold higher, 273 nM
- GGGUACAUCGCGGCCGCCACUCGUGUAAAUACAUGAGGAUCACCCAUGUCGAUGGAGACAUCGGAGAGGACCGGGUGAUGUACCG — 4.8-fold higher, 114 nM
- ACCGCAUCCGUAUAGGAUGCGGCCCAUGAAGGAGCGUGGGAAACCACAGGUAGGUCGCAUGGAUUACAUGAGGAUCACCCAUGUG [Skyfall] — 16-fold higher, 378 nM
- CUCGAGGCCGGUGAUACCAGACACGAAACUAUACAUGAGGAUCACCCAUGUCAAACAACGGUCCCUUGGCAGCAUGGGUGUAUCC [Enzabemage] — 5.5-fold higher, 131 nM
- CGAUCUUUCGAAAGAAGGAUCGAUUCUGAUACCAGAGACGAAAGUCUCCCUUGGCAGCAGUGCCAACAUGAGGAUCACCCAUGUA [Theophylline A 8] — within 1.5-fold, 26 nM
- AUGCAUAGCCGAAGGAGCGCAAUAGAAUGACAUGAGGAUCACCCAUGUGUGUGAUGUGGAUUGCAGGUAGGUCGCGGAGUGGUAU [Exclusion - Arginine B (Freestyle 4)] — 2.2-fold higher, 52.6 nM
- CAAAACCUUACAGAUACCAGCACAUGAGGAUCACCCAUGUAUUGGACACUUCGCUCAUCGUGCCCUUGGCAGCUGUGGGACGAGG [Tiatenan] — 5.5-fold higher, 132 nM
- UAUGCACAUGAGGAUCACCCAUGUAUGGAAGGAGCGGUGAAUAAACCAGGUAGGUCGCCAUGGUGAGGAUCAUCUAUGUAAUCGU [Exclusion - Arginine A (Freestyle 6)] — 5.3-fold higher, 125 nM
- CGCAACAUGAGGAUCACCCAUGUAAUGACGCGAGGACCGGUACGGCCGCCACUCGCCUGGCAGUGAGCGCAUGCGGCCUGGGUAU [Exclusion Tryp A GF8] — within 1.5-fold, 16.5 nM
- AAAAGUGGGUCAAUUAUUUAAACUUCAGAAGGAGCGUGAUGUUUCACAGGUAGGUCGCUGAUAACAUGAGGAUCACCCAUGUAUU [JR_ExcArginiA_Sub007] — 2.5-fold higher, 59.8 nM
- AAUGAUGCGAUCUACAGUCGAGGAUUCGAUACCAGCAACGGGCGUUGCCCUUGGCAGCGAGCUACAUGAGGAUCACCCAUGUUAC [theeternabot_exclusion_MS2_Theo_A_45] — within 1.5-fold, 25.5 nM
- AGCCCUGUACUAGAUACCAGCUACAUGAGGAUCACCCAUGUGCGUCAAGACUGACUGUGUAGCCCUUGGCAGCUACUCGCAUGUA [Exclusion - Theophylline B (Freestyle 3)] — within 1.5-fold, 23.1 nM
- CCUAUGCAGUCGGCCGCCACUGAAAUCAAUAAGAUUACCUCAGAAACAUGAGGAUCACCCAUGUACAGGACCGGGACUGUAUAGG [Ex Tryptophan B 16] — 1.8-fold higher, 41.8 nM
- UGUAUGGACUGAAGGAGCGGAUGAUAACCUGAGGAUCACCCGGGUAAUAAGGCGAAAGCCAUCCAGGUAGGUCGCAGUCCAUACU — 4.7-fold higher, 111 nM

Same assay, conditions: Eterna round: R107; input ligand: theophylline 2 mM

Point of comparison: “ACAUGAGGAUCACCCAUGUAAUAAGGAGAAGGAGCGCGUAAGGACGCAGGUAGGUCGCUCGUGGUCCGGCCGCAAGGCCGGACCA [#1 Same State - Arginine A Attempt #8 (HarryS)]”, “apparent KD of MS2 coat protein” value 8.04 nM. Against it:
- GUUUAAAGGUCGGCCGCCACUGUAGGAUGUGUUCUUUCACAUGAGGAUCACCCAUGUUGUUAUUAUAGGACCGGGAUUUUAGGAC [39MS split4] — 3.4-fold higher, 27.4 nM
- UUGUUGUUUGGAAGGAGCGUGUAAGAUUAAGAACAUGAGGAUCACCCAUGUUGUAAGGUAGCACAGGUAGGUCGCCGGGUGGUGG [11.T] — 2.2-fold higher, 17.6 nM
- GCACCAGGUACGGAUACCAGCUAUAGGCACAGAGGAGGACAUGAGGAUCACCCAUGUGAUGGCCCUUGGCAGCUGUACCUGGUGC [EThB NP+V+V2 #3] — 21-fold higher, 171 nM
- UCGGGCAUGGCGGCCGCCACUGGUUGGCGUGCGGAUGAGGGAACAUGAGGAUCACCCAUGUUGGUUAGGACCGGGCUUGCGUCGU [knkmullin] — 1.9-fold higher, 15.2 nM
- AAUAUAAUAUAAAUAAUAAUAAUAUCUGAUACCAGACUCUCAUGUGUCCCUUGGCAGCAGUAACAUGAGGAUCACCCAUGUAAUA [JR_Nu_SSTheophyA_Sub027] — 2-fold higher, 16.2 nM
- AUAACAUGAGGAUCACCCAUGUAUUGGUAACGAGGACCGGUACGGCCGCCACUCGAAUUUUGGUGGUAUAAUAUAUAUAUGAUUA [JR_SSTryptoA_Sub016] — 2.3-fold higher, 18.8 nM
- GAAUAAGAAUCGGCCGCCACUCACAUGAGGAUCACCCAUGUACAUGAGGAACAUGAAAAUCACCCGAGGACCGGGAUAUAUGUUC [Excluion - Tryptophan B #1] — 8.9-fold higher, 71.3 nM
- ACAUUGCGCUCGGCCGCCACUGCCUUAUGAUUAUAAGGAUUAAUGAACAUGAGGAUCACCCAUGUCAGGACCGGGAGCGAACCAU [SSTryp B #6] — 1.8-fold higher, 14.1 nM
- CUAUAAGUACCGGUCCUCAGAUCCUCAUGACGAGGACCGGUACGGCCGCCACUCGAAACAUGAGGAUCACCCAUGUAAUAAUAAU [Brourdmod06] — 3-fold higher, 24.5 nM
- UCGUUUGAGGCGGCCGCCACUGGUCUCAUGGUCAACAUGAGGAUCACCCAUGUAUCUUUGCUAAGCAGGACCGGGCCUCGAGCGA [#19 Exclusion Tryptophan B] — 11-fold higher, 87.5 nM
- AUGGACGGCGAUCUGGGUUUACCAGAUCGGCGAGGACCGGUACGGCCGCCACUCGUGUUUAUUUAACAUGAGGAUCACCCAUGUA [SSTA #2] — 17-fold higher, 139 nM
- UGGUAGGUAGGAAGGAGCGCAUACUUCACAUGAGGAUCACCCAUGUCGAGACGUGAGUCAGUGCAGGUAGGUCGCCUAGUUAUGA [Same State - Arginine B (Freestyle 23)] — 4.7-fold higher, 37.6 nM
- UAUAUAUACUCGGCCGCCACUGAGAGAGUCAUGUAAACAUGAGGAUCACCCAUGUAAUAUAUAUACAGGACCGGGAGUAUAUGAA [4.B] — 1.9-fold higher, 15.5 nM
- ACCUGUACGAAAAGUGCAGGACAUGGAAAUCGAGGACCGGUACGGCCGCCACUCGUUGAAAACAAGUGGAUCACCCUUGUCCAUG [TrypAS 3 #AlternativeMS2 #Zipper #StaticStem] — 110-fold higher, 872 nM
- GGCCCGGACUUGGAAUGGGUGUUUCCCUCACGAGGACCGGUACGGCCGCCACUCGAAGACAUGAGGAUCACCCAUGUAGUCGACA [Qudirate] — 17-fold higher, 138 nM
- AAUUCAAGGUUCUUGAUGUAUUAUAUAUUUCGAGGACCGGUACGGCCGCCACUCGUUAAUUACAUGAGGAUCACCCAUGUUAGCU [JR_ExcTryptoA_Sub010] — 2.1-fold higher, 17.2 nM
- GCCGGACUUUCGGCCGCCACUGAGAGAGUCGUGUGAACAUGAGGAUCACCCAUGUAAUAUAUAUACAGGACCGGGAGGGUUCGGC [4.S] — within 1.5-fold, 11.9 nM
